From PMC12872464
Where a chain is given by its changes, count along the chain named. Names may count otherwise.

B1: HA-tagged PPAP recombinant protein, isoform 2 (membrane protein), wild type (rPPAP-HA WT), P15309-2 N94A; N220A; N333A (protein)
chain: KELKFVTLVFRHGDRSPIDTFPTDPIKESSWPQGFGQLTQLGMEQHYELGEYIRKRYRKFLAESYKHEQVYIRSTDVDRTLMSAMTNLAALFPPEGVSIWNPILLWQPIPVHTVPLSEDQLLYLPFRNCPRFQELESETLKSEEFQKRLHPYKDFIATLGKLSGLHGQDLFGIWSKVYDPLYCESVHAFTLPSWATEDTMTKLRELSELSLLSLYGIHKQKEKSRLQGGVLVNEILNHMKRATQIPSYKKLIMYSAHDTTVSGLQMALDVYNGLLPPYASCHLTELYFEKGEYFVEMYYRAETQHEPYPLMLPGCSPSCPLERFAELVGPVIPQDWSTECMTTNSHQVLKVIFAVAFCLISAVLMVLLFIHIRRGLCWQRESYGNI
B2: HA-tagged PPAP recombinant protein, isoform 2 (membrane protein), wild type (rPPAP-HA WT), P15309-2 N94A (protein)
chain: B1 chain with A188N, A301N
B3: HA-tagged PPAP recombinant protein, isoform 2 (membrane protein), wild type (rPPAP-HA WT), P15309-2 N94A; N333A (protein)
chain: MRAAPLLLARAASLSLGFLFLLFFWLDRSVLAKELKFVTLVFRHGDRSPIDTFPTDPIKESSWPQGFGQLTQLGMEQHYELGEYIRKRYRKFLAESYKHEQVYIRSTDVDRTLMSAMTNLAALFPPEGVSIWNPILLWQPIPVHTVPLSEDQLLYLPFRNCPRFQELESETLKSEEFQKRLHPYKDFIATLGKLSGLHGQDLFGIWSKVYDPLYCESVHNFTLPSWATEDTMTKLRELSELSLLSLYGIHKQKEKSRLQGGVLVNEILNHMKRATQIPSYKKLIMYSAHDTTVSGLQMALDVYNGLLPPYASCHLTELYFEKGEYFVEMYYRAETQHEPYPLMLPGCSPSCPLERFAELVGPVIPQDWSTECMTTNSHQGTEDSTD
B4: HA-tagged PPAP recombinant protein, isoform 2 (membrane protein), wild type (rPPAP-HA WT), P15309-2 N94A; N220A (protein)
chain: B3 chain with N220A, A333N
B5: HA-tagged PPAP recombinant protein, isoform 2 (membrane protein), wild type (rPPAP-HA WT), P15309-2 N220A (protein)
chain: B1 chain with A62N, A301N
B6: HA-tagged PPAP recombinant protein, isoform 2 (membrane protein), wild type (rPPAP-HA WT), P15309-2 N333A (protein)
chain: B1 chain with A62N, A188N
B7: HA-tagged PPAP recombinant protein, isoform 2 (membrane protein), wild type (rPPAP-HA WT), P15309-2 N220A; N333A (protein)
chain: B1 chain with A62N

Key:
[1] = molecular target: recombinant lectin domain of FimH with FLAG tag (rFimHLD-FLAG), P08191; assay: western blot quantification of rFimHLD-FLAG bound to rPPAP-HA; conditions: chain shown with the change; n = 3 biological replicates; parent: est. 1.0; read off a plot
recombinant lectin domain of FimH with FLAG tag (rFimHLD-FLAG), P08191, sequence (P08191 22-156): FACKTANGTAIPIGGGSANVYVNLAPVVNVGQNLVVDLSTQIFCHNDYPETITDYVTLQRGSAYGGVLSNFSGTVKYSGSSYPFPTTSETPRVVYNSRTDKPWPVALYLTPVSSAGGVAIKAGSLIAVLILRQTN

[2] = molecular target: full-length FimH adhesin on live WT UPEC UTI89 bacteria, P08191; assay: binding array (rPPAP bound to glass slide, incubated with live bacteria); conditions: chain shown with the change, n = 3 biological replicates
full-length FimH adhesin on live WT UPEC UTI89 bacteria, P08191, sequence (P08191 22-300): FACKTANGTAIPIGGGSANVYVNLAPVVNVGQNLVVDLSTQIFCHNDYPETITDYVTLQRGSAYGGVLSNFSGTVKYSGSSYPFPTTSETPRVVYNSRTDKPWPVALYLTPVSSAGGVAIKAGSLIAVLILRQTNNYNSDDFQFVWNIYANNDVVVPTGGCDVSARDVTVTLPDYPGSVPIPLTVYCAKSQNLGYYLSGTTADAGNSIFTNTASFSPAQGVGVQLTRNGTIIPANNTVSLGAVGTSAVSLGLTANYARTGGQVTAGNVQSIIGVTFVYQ

| Binder | ratio to parent [1] | response (bacteria per field) ([2]; with D-mannose, parent: est. 18, read off a plot) | response (bacteria per field) ([2]; without D-mannose, parent: est. 66, read off a plot) |
| --- | --- | --- | --- |
| B1 | 0.36 | 13 | 19 |
| B2 | 0.78 |  |  |
| B3 | 0.5 |  |  |
| B4 | 0.53 |  |  |
| B5 | 0.68 |  |  |
| B6 | 0.6 |  |  |
| B7 | 0.25 |  |  |
